Test results as given in patent US20230121197A1, “ANTIBODIES SPECIFICALLY BINDING THE CARBOXYMETHYLATED CATALYTIC SUBUNIT OF PROTEIN PHOSPHATASE 2A” (Medizinische Universität Wien, priority 2020, published 2023).
No end group written: not given here.

B1: 7C10-C5 monoclonal antibody (antibody, V domains shown)
VH: DVQLQESGPGLVKPSQSLSLTCSVTGYSITSGYYWNWIRQFPGNKLEWMGYISYDGSNNYNPSLKNRISITRDTSKNQFFLKLNSVTTEDTATYYCAGRFAYWGQGTLVTVSA
VL: DVLMTQTPLSLPVSLGDQASISCRSSQSIVHSNGNTYLEWYLQKPGQSPKLLIYKVSNRFSGVPDRFSGSGSGTDFTLKINRVEAEDLGVYYCFQGSHVPWTFGGGTKLEIK
notes: Used as hybridoma culture supernatant (ELISA, Western blot, IHC) or at 50 µg/mL (SPR); also called 7C10 X63; clone 7C10-C5
B2: 7C10-C5: α-carboxymethylation specific mouse monoclonal IgG1 antibody from single clone hybridoma 7C10-C5 (DSM ACC3350) (antibody)
heavy: MYRMQLLSCIALSLALVTNSDVQLQESGPGLVKPSQSLSLTCSVTGYSITSGYYWNWIRQFPGNKLEWMGYISYDGSNNYNPSLKNRISITRDTSKNQFFLKLNSVTTEDTATYYCAGRFAYWGQGTLVTVSAAKTTAPSVYPLAPVCGDTTGSSVTLGCLVKGYFPEPVTLTWNSGSLSSGVHTFPAVLQSDLYTLSSSVTVTSSTWPSQSITCNVAHPASSTKVDKKIEPRGPTIKPCPPCKCPAPNLLGGPSVFIFPPKIKDVLMISLSPIVTCVVVDVSEDDPDVQISWFVNNVEVHTAQTQTHREDYNSTLRVVSALPIQHQDWMSGKEFKCKVNNKDLPAPIERTISKPKGSVRAPQVYVLPPPEEEMTKKQVTLTCMVTDFMPEDIYVEWTNNGKTELNYKNTEPVLDSDGSYFMYSKLRVEKKNWVERNSYSCSVVHEGLHNHHTTKSFSRTPGK
light: MDMRVPAQLLGLLLLWLSGARCDVLMTQTPLSLPVSLGDQASISCRSSQSIVHSNGNTYLEWYLQKPGQSPKLLIYKVSNRFSGVPDRFSGSGSGTDFTLKINRVEAEDLGVYYCFQGSHVPWTFGGGTKLEIKADAAPTVSIFPPSSEQLTSGGASVVCFLNNFYPKDINVKWKIDGSERQNGVLNSWTDQDSKDSTYSMSSTLTLTKDEYERHNSYTCEATHKTSTSPIVKSFNRNEC
modifications: Amino acid sequence of the recombinant 7C10-C5 heavy chain; Amino acid sequence of the recombinant 7C10-C5 light chain

Key:
[1] = target: T1, PP2Ac C-terminal peptide meL309, ac-HVTRRTPDYFL-CH3 (α-carboxymethylated) (human, SMILES …); assay: ELISA, peptide coated at 2 µg/ml, supernatant 1:50
T1 construct: also called Y307-meL309; mePP2Ac
T1 peptide: Ac-HVTRRTPDYFL-OMe
Experimental: Nunc Medisorp 96-well ELISA flat-bottom plates were coated with peptides L309 (ac-[…]) (SEQ ID NO:18), meL309 (ac-[…]-CH₃) (SEQ ID NO:18) or amL309 (ac-[…]-NH₂) (SEQ ID NO:18) at 2 μg/ml in TBS at 4° C. over-night. After washing once with TBS, the wells were incubated with 2% BSA in TBS for 1 h at RT. After washing once with TBS, the wells were incubated with single clone hybridoma cell culture supernatant clone 7C10-C5 1:50 (˜1 μg/ml) in 1% BSA/TBS for 1 h at RT. After washing twice with TBS, wells were incubated with anti-mouse HRP-coupled secondary antibody for 1 h at RT, followed by washing 3× in PBS. Bound antibodies were detected by colorimetric reaction with 3,3′,5,5′-Tetramethylbenzidine as substrate, and absorbance was measured at 450 nm. Values were normalized to meL309 which was set to 1. Average and standard deviation of N=8 experiments are shown. Statistical significance was assessed using ANOVA followed by Tukey's HSD as a post-hoc test. P values are indicated with *, **, ***, which correspond to values of <0.05, <0.01, and <0.001.
Specifically, flat-bottom Nunc-Immuno Medisorp 96-well ELISA plates (Thermo; 467320) were coated o/n at 4° C. with 50 μl of either a peptide of the sequence ac-[…]-OH (L309; unmodified) (SEQ ID NO:18) at a concentration of 2 μg/ml, a peptide of the sequence ac-[…]-CH₃ (meL309; methylated) (SEQ ID NO:18) at a concentration of 2 μg/ml in TBS (137 mM NaCl (AppliChem, #131659, 2.7 mM KCl (AppliChem, #131494), 24.8 mM Tris (AppliChem, #A1086), pH 7.4 with HCl) or a peptide of the sequence ac-[…]-NH₂ (amL309; amidated) (SEQ ID NO:18) at a concentration of 2 μg/ml in TBS. Of note, the “ac-” in the peptides described here and in other Examples refers to an acetylated N-terminus. Said acetylation neutralizes the positive charge at the N-terminus, and the free charged N-terminus is thereby removed.

[2] = target: T2, PP6c C-terminal peptide L305, ac-IPPRTTTPYFL (non-methylated) (human); assay: ELISA, values normalized to meL309, Neg = TBS only, N=7
T2 construct: also called PP6 L305
T2 peptide: Ac-IPPRTTTPYFL
Source text: (§1) FIG. 9: Monoclonal antibody 7C10-C5 detects α-carboxymethylated PP2Ac C-terminal peptides with >10-fold higher signal intensity than the α-carboxymethylated PP4c and PP6c C-terminal peptides in ELISA. Nunc Medisorp 96-well ELISA flat-bottom plates were coated with PP2Ac peptides L309 (ac-[…]) (SEQ ID NO:18), meL309 (ac-[…]-CH3) (SEQ ID NO:18), PP4c peptides L307 (ac-[…]) (SEQ ID NO:20), meL307 (ac-[…]-CH₃) (SEQ ID NO:20), PP6c peptides L305 (ac-[…]) (SEQ ID NO:22) or meL305 (ac-[…]-CH₃) (SEQ ID NO:22) at 2 μg/ml in TBS or TBS only (Neg) at 4° C. over-night. After washing once with TBS, the wells were incubated with 2% BSA in TBS for 1 h at RT. After washing once with TBS, the wells were incubated with single clone hybridoma cell culture supernatant, clone 7C10-C5 1:50 for 1 h at RT. After washing twice with TBS, wells were incubated with anti-mouse and anti rabbit HRP-coupled secondary antibody for 1 h at RT, followed by washing 3× in PBS. Bound antibodies were detected by colorimetric reaction with 3,3′,5,5′-Tetramethylbenzidine as substrate, and absorbance was measured at 450 nm. Values were normalized to meL309 which was set to 1. Average and standard deviation of N=7 experiments are shown. […] Statistical significance was assessed using ANOVA followed by Tukey's HSD as a post-hoc test. […]

[3] = target: T3, PP6c C-terminal peptide meL305, ac-IPPRTTTPYFL-CH3 (α-carboxymethylated) (human, SMILES …); assay: as above
T3 construct: also called PP6 meLeu305
T3 peptide: Ac-IPPRTTTPYFL-OMe
Source text: as §1

[4] = target: PP2Ac C-terminal peptide pY307-meL309, ac-HVTRRTPDpYFL-CH3 (human); assay: ELISA, 4-fold dilution series of coated peptide, hybridoma supernatant 1:50, normalized
[5] = system: PP6; assay: Summary of cross-reactivities of C-terminal PP2Ac antibodies (Table 4), PP6; details: antibodies screened for binding methylated PP2Ac
Source text: Examples of antibodies with a preference for non-methylated PP2Ac are mouse monoclonal antibody 4B7 (Yu (2001), Mol Biol Cell 12, 185-199), mouse monoclonal antibody 1D7 generated by the Ogris lab but also the rabbit monoclonal E155 antibody from Abeam and the mouse monoclonal F-8 from SCBT that were thought to be specific for pTyr^307.

Row | Molecule | fold higher ELISA signal intensity than with the amidated peptide (amL309) [1] [fold] | fold higher ELISA signal intensity than with the non-methylated peptide (L309) [1] [fold] | fold higher ELISA signal intensity than with the α-carboxymethylated PP4c peptide (meL307) [1] [fold] | binding result [2] | binding result [3] | EC50 (read off the curve) [4] [µg/mL] | PP6 meLeu^305 [5]
1 | B1 | 6 | 26 | ≥ 10 | no binding | no binding | 0.3 | –
2 | B2 | – | – | – | – | – | – | — (— <15%)
